Laboratory results from US20240343803A1 (SHANDONG SIMCERE BIOPHARMACEUTICAL, published 2024).

T1: cynomolgus monkey PVRIG on FlpinCHO-cyno PVRIG cells (cynomolgus monkey, UniProt A0A2K5WVV8 41-322)
T1 construct: whole, on cells; also called FlpinCHO-cynomolgus monkey PVRIG
T1 sequence: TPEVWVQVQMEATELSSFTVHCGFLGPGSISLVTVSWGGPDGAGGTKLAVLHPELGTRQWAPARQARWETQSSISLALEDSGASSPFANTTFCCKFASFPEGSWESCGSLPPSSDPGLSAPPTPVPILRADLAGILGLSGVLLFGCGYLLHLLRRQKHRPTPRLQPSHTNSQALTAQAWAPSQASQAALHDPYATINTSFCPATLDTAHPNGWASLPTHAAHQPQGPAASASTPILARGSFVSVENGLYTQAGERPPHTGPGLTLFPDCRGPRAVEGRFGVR

T2: human PVRIG-mFc protein (Acro, PVG-H5253) (human, UniProt Q6DKI7 41-171, limits assumed)
T2 construct: bought reagent; also called PVRIG-ECD-mFc
T2 sequence (looked up): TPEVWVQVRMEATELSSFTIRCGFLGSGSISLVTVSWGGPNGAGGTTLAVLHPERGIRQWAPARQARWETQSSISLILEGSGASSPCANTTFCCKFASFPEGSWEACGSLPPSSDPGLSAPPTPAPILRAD

T3: human PVRIG-his (AcroBiosystems, Cat NO. PVG-H52H4) (human, UniProt Q6DKI7 41-171, limits assumed)
T3 construct: treated as the same protein; also called human PVRIG-His protein; Human PVRIG-His, Acro C227P1-9ARF1-T4
T3 sequence (looked up): T2 sequence (looked up)

B1: SRF813-hIgG1 (antibody, V domains shown)
VH: QVQLVQSGAEVKKPGSSVKVSCKASGGTFSSAAISWVRQAPGQGLEWMGNIIPIVGIANYAQKFQGRVTITADESTSTAYMELSSLRSEDTAVYYCARDTGRGYTRHFWFDPWGQGTLVTVSS
VL: DIQMTQSPSSLSASVGDRVTITCRASQSISSYLNWYQQKPGKAPKLLIYAASSLQSGVPSRFSGSGSGTDFTLTISSLQPEDFATYYCQQSDILYTFGGGTKVEIK
notes: human IgG1 format by its name
B2: PVRIG-A105 (VHH)
VHH: EVQLVESGGGLVQAGGSLRLSCAASGRTFDRHTMTWFRQAPGKEREFVATASRIPGDTYYSHSVKGRFTISRDNAKNTVYLQLNNLKPEDTAVYYCAATSAYCSEVDCYEKGSWYDNWGQGIQVTVSS
notes: tested as VHH-hinge-CH2-CH3 (human IgG1-Fc); not shown: human IgG1 hinge-CH2-CH3

What was measured:
[1] = molecular target: T1, cynomolgus monkey PVRIG on …; experiment: FACS, FlpinCHO-cyno PVRIG cells
Experimental: After discarding the cell culture medium, the cells were rinsed with PBS and digested for 8-10 minutes by adding 1 mL Versene (Gibico, 15040-066). The Ham's F12 (Gibico, 21127-022) complete medium containing 10% FBS was then added to terminate the digestion and acquire cell suspension. After counting with a cell counter (Beckman Coulter, Vi-CELL), an appropriate amount of cell suspension was centrifuged at 350×g to remove the supernatant, washed twice with PBS, stained with Zombie violet (Biolegend, 423114) and incubated at room temperature for 20 minutes. After incubation, the cells were added with staining buffer (2% FBS+PBS) to stop staining, centrifuged at 350×g to remove the supernatant, washed twice and resuspended with staining buffer to a density of 2×10⁶ cells/mL. The cells were plated into a 96-well plate (50 μL of cell suspension per well) for further use. The antibodies were diluted from the highest concentration of 46 nM (two-fold concentration) with staining buffer by 3.3-fold serial dilution. The diluted antibodies were added to the well containing 50 μL of cell suspension. The plate was placed on a microplate shaker at 400 rpm for 1 minute to fully mix the antibodies and cells, and then incubated at 4° C. for 30 minutes. After the incubation, the cells were washed twice with staining buffer (200 μL per well) and centrifuged at 350×g for 5 minutes to discard the supernatant. The PE goat anti-human IgG Fc antibody (ebioscience, 12-4998-82) was diluted 250 times with staining buffer, added into the washed wells (100 μL per well), mixed well, and stained at 4° C. for 30 minutes. After staining, the cells were washed twice with staining buffer, finally resuspended with 200 μL staining buffer and analyzed by flow cytometry (BD, Canto II). […] An antibody binding curve was drawn with concentration of antibodies as the abscissa and the corresponding Mean Fluorescence Intensity (MFI) as the ordinate. The AUC value of the curve was calculated by using a Four Parameter Logistic Fit (GraphPadPrism9). […]

[2] = molecular target: T2, human PVRIG-mFc protein (Acro, …); experiment: competition FACS; blocked: human PVRIG-mFc binding to CHO-K1-CD112 cells
Procedure, shortened: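 Antibody dilutions premixed with human PVRIG-mFc (working solution 1 μg/mL, four-fold concentration) for 30 min at 4° C, then incubated with CHO-K1-CD112 cells 30 min at 4° C. Bound PVRIG-mFc detected by PE anti-mouse IgG Fc flow cytometry; IC50 and AUC from four-parameter fit of MFI versus antibody concentration.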

[3] = molecular target: T3, human PVRIG-his (AcroBiosystems, Cat …); experiment: competition ELISA on coated human PVRIG-his; blocked ligand human PVRL2-mFc
Procedure, shortened: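 Wells were coated with 0.5 μg/mL human PVRIG-his. Bound ligand was read by HRP/TMB absorbance, and IC50 came from a four-parameter logistic fit of OD against antibody concentration.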

| Binder | EC50 (read off the curve) [1] [nM] | IC50 (read off the curve) [2] [nM] | IC50 (read off the curve) [3] [nM] |
| --- | --- | --- | --- |
| B1 | ~1 | ~1 | ~0.8 |
| B2 | ~0.5 | ~1 | ~0.9 |
